# Data taken from the supplement of paper PMC10567573.
# B1: NP_015628.1 (parent)
# chain: EQRNSRWNTVLRAVKAKTHHLEP
# Variants of: B1
# Assay: protein stability index of a GFP-peptide fusion (GPS, HEK-293T) (PSI 1-6); higher = more stable
# Settings: c terminus: native
# 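Also: lentivirally expressed fusion library, cells FACS-sorted into six equal-sized GFP/DsRed ratio bins, PSI computed from sequencing read fractions per bin weighted by bin number.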
row,Variant,protein stability index
1,EQRNSRWNTVLRLVKAKTHHLEP,2.69
2,EQRNSRWNTVLRMVKAKTHHLEP,3.28
3,EQRNSRWNTVLRNVKAKTHHLEP,3.06
4,EQRNSRWNTVLRQVKAKTHHLEP,2.7
5,EQRNSRWNTVLRRVKAKTHHLEP,2.57
6,EQRNSRWNTVLRSVKAKTHHLEP,3
7,EQRNSRWNTVLRTVKAKTHHLEP,2.97
8,EQRNSRWNTVLRWVKAKTHHLEP,2.93
9,EQRNSRWNTVLRYVKAKTHHLEP,3.1
10,EQRNSRWNTVLRAAKAKTHHLEP,3.23
11,EQRNSRWNTVLRACKAKTHHLEP,2.73
12,EQRNSRWNTVLRADKAKTHHLEP,2.89
13,EQRNSRWNTVLRAEKAKTHHLEP,2.45
14,EQRNSRWNTVLRAFKAKTHHLEP,2.87
15,EQRNSRWNTVLRAGKAKTHHLEP,3.31
16,EQRNSRWNTVLRAHKAKTHHLEP,3.06
17,EQRNSRWNTVLRAIKAKTHHLEP,3.37
18,EQRNSRWNTVLRAKKAKTHHLEP,3.44
19,EQRNSRWNTVLRALKAKTHHLEP,3.05
20,EQRNSRWNTVLRAMKAKTHHLEP,3.07
21,EQRNSRWNTVLRANKAKTHHLEP,3.1
22,EQRNSRWNTVLRAPKAKTHHLEP,2.73
23,EQRNSRWNTVLRAQKAKTHHLEP,2.85
24,EQRNSRWNTVLRARKAKTHHLEP,2.96
25,EQRNSRWNTVLRASKAKTHHLEP,3.28

row,Variant,protein stability index
1,EQRNSRWNTVLRATKAKTHHLEP,2.97
2,EQRNSRWNTVLRAWKAKTHHLEP,3.26
3,EQRNSRWNTVLRAYKAKTHHLEP,2.87
4,EQRNSRWNTVLRAVAAKTHHLEP,3.24
5,EQRNSRWNTVLRAVCAKTHHLEP,3.1
6,EQRNSRWNTVLRAVDAKTHHLEP,3.21
7,EQRNSRWNTVLRAVEAKTHHLEP,3.25
8,EQRNSRWNTVLRAVFAKTHHLEP,2.9
9,EQRNSRWNTVLRAVGAKTHHLEP,3.31
10,EQRNSRWNTVLRAVHAKTHHLEP,3.22
11,EQRNSRWNTVLRAVIAKTHHLEP,3.1
12,EQRNSRWNTVLRAVLAKTHHLEP,3.07
13,EQRNSRWNTVLRAVMAKTHHLEP,3.33
14,EQRNSRWNTVLRAVNAKTHHLEP,3.17
15,EQRNSRWNTVLRAVPAKTHHLEP,3.14
16,EQRNSRWNTVLRAVQAKTHHLEP,3.05
17,EQRNSRWNTVLRAVRAKTHHLEP,3.08
18,EQRNSRWNTVLRAVSAKTHHLEP,3.26
19,EQRNSRWNTVLRAVTAKTHHLEP,2.99
20,EQRNSRWNTVLRAVVAKTHHLEP,3.11
21,EQRNSRWNTVLRAVWAKTHHLEP,3.24
22,EQRNSRWNTVLRAVYAKTHHLEP,3.25
23,EQRNSRWNTVLRAVKDKTHHLEP,2.82
24,EQRNSRWNTVLRAVKEKTHHLEP,2.37
25,EQRNSRWNTVLRAVKFKTHHLEP,3.02

row,Variant,protein stability index
1,EQRNSRWNTVLRAVKGKTHHLEP,2.77
2,EQRNSRWNTVLRAVKHKTHHLEP,2.98
3,EQRNSRWNTVLRAVKIKTHHLEP,2.73
4,EQRNSRWNTVLRAVKMKTHHLEP,2.9
5,EQRNSRWNTVLRAVKNKTHHLEP,2.35
6,EQRNSRWNTVLRAVKPKTHHLEP,2.78
7,EQRNSRWNTVLRAVKQKTHHLEP,2.99
8,EQRNSRWNTVLRAVKRKTHHLEP,2.77
9,EQRNSRWNTVLRAVKSKTHHLEP,3.24
10,EQRNSRWNTVLRAVKTKTHHLEP,2.78
11,EQRNSRWNTVLRAVKVKTHHLEP,2.95
12,EQRNSRWNTVLRAVKWKTHHLEP,2.92
13,EQRNSRWNTVLRAVKYKTHHLEP,2.78
14,EQRNSRWNTVLRAVKAATHHLEP,2.77
15,EQRNSRWNTVLRAVKACTHHLEP,2.61
16,EQRNSRWNTVLRAVKADTHHLEP,3.1
17,EQRNSRWNTVLRAVKAETHHLEP,2.77
18,EQRNSRWNTVLRAVKAFTHHLEP,2.75
19,EQRNSRWNTVLRAVKAHTHHLEP,2.52
20,EQRNSRWNTVLRAVKAITHHLEP,2.61
21,EQRNSRWNTVLRAVKALTHHLEP,2.62
22,EQRNSRWNTVLRAVKAMTHHLEP,2.91
23,EQRNSRWNTVLRAVKANTHHLEP,2.69
24,EQRNSRWNTVLRAVKAPTHHLEP,2.96
25,EQRNSRWNTVLRAVKAQTHHLEP,2.67

row,Variant,protein stability index
1,EQRNSRWNTVLRAVKARTHHLEP,3.33
2,EQRNSRWNTVLRAVKASTHHLEP,2.85
3,EQRNSRWNTVLRAVKATTHHLEP,2.84
4,EQRNSRWNTVLRAVKAVTHHLEP,2.79
5,EQRNSRWNTVLRAVKAWTHHLEP,2.62
6,EQRNSRWNTVLRAVKAYTHHLEP,2.82
7,EQRNSRWNTVLRAVKAKAHHLEP,2.91
8,EQRNSRWNTVLRAVKAKCHHLEP,2.5
9,EQRNSRWNTVLRAVKAKDHHLEP,3.14
10,EQRNSRWNTVLRAVKAKEHHLEP,3.26
11,EQRNSRWNTVLRAVKAKFHHLEP,3.33
12,EQRNSRWNTVLRAVKAKGHHLEP,3.12
13,EQRNSRWNTVLRAVKAKHHHLEP,2.76
14,EQRNSRWNTVLRAVKAKIHHLEP,3.12
15,EQRNSRWNTVLRAVKAKKHHLEP,2.97
16,EQRNSRWNTVLRAVKAKLHHLEP,3.13
17,EQRNSRWNTVLRAVKAKMHHLEP,2.83
18,EQRNSRWNTVLRAVKAKNHHLEP,2.82
19,EQRNSRWNTVLRAVKAKPHHLEP,2.93
20,EQRNSRWNTVLRAVKAKQHHLEP,3.34
21,EQRNSRWNTVLRAVKAKRHHLEP,3.11
22,EQRNSRWNTVLRAVKAKSHHLEP,2.29
